For one substance, GTPγS binding activity results are on record in patent publication US20040185525A1, “Process for producing peptide” (priority 2001, published 2004).

This experiment has as its target T1, GPR8 (Homo sapiens, UniProt P48146).
T1 construct: expressed in transfected cells; host or cells: CHO cells (membrane fraction)
The experiment can be described thus: GTPγS binding activity using a cell membrane fraction of CHO cells expressing GPR8. It counts as biochemical. Particulars: fraction containing cell membrane of CHO cells expressing GPR8; compared with synthetic hGPR8L; process of Example 6 in WO 01/98494. The source says: FIG. 4 is a graph showing the GTPγS binding activity of hGPR8L (SEQ ID NO: 44) of Example 1 to 3 toward CHO cells expressing GPR8. The horizontal axis indicates the concentration of hGPR8L while the vertical axis indicates the GTPyS binding activity. The solid points (-•-) indicate the results obtained for a synthetic hGPR8L (SEQ ID NO: 44) while the open points (-∘-) indicate the results obtained for hGPR8L (SEQ ID NO: 44) produced by the method of the present invention (tandem repeat technique).
Using a fraction containing cell membrane of CHO cells expressing GPR8, the GTPγS binding activity of the hGPR8L obtained above was determined by the same process as described in Example 6 in WO 01/98494.

T1 sequence (P48146 whole entry): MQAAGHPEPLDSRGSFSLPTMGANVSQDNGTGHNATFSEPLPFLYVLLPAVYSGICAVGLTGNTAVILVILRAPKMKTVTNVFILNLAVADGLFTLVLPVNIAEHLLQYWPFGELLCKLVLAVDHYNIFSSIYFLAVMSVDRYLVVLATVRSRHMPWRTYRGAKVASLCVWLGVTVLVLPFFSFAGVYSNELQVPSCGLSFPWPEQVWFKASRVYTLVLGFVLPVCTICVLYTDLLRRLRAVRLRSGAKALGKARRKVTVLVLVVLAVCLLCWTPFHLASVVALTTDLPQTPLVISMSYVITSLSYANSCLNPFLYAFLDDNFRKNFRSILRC

Regarding “hGPR8L: 23-residue ligand polypeptide for human GPR8 (SEQ ID NO: 44), produced by the tandem repeat technique in E. coli (WYKHVASPRYHTVGRAAGLLMGL; Human)”, the GTPγS binding activity entry is “equivalent to that of the artificially synthesized protein”.
